Reference: paper PMC8849274 (Oncotarget, 2022)
Where two headings read alike, the source gives them in different places.

Columns and labels:
Assay type in all cases: in vivo
[1] = Small animal PET/CT imaging, BxPC-3 tumors; settings: female, mouse, tumor (BxPC-3 xenograft), iv, total radioactivity, athymic nude mice bearing BxPC-3 tumors, 3.7 MBq i.v., without blocking, n = 3, read-out: SUVmax of tumors
Procedure: BxPC-3 cells (5 × 10^6) were inoculated in the right shoulder of female athymic nude mice 3–4 weeks before PET imaging sessions. All the experiments involving animals followed the Guidelines for Care and Use of Research Animals established by the Division of Comparative Medicine and the Animal Studies Committee of Washington University School of Medicine under protocol #20–0214. […] Mice were imaged with CT followed by static PET scans at 1, 4, and 24 h after tracer administration on an Inveon small animal PET/CT scanner (Siemens Medical Solutions, Malvern, PA, USA). Static images were collected for 20 min and reconstructed with the maximum a posteriori (MAP) reconstruction algorithm using the Inveon Reseach Workstation image display software (Siemens). Regions of interest (ROI) were selected based on co-registered anatomical CT images, and the associated radioactivity was measured using the Inveon software. The maximum standard uptake value (SUV) was calculated as the highest regional radioactivity concentration (nCi/cc) × animal weight (g)/decay-corrected amount of injected dose (nCi).

[2] = Biodistribution in mice bearing CaSki xenografts; settings: female, athymic nude, mouse, iv, total radioactivity; for tissue uptake at 1 h: 1 h p.i.; for tissue uptake at 24 h: 24 h p.i.
Text: (§1) Animals were supplied by Charles River Laboratories (Wilmington, MA, USA), and were handled in compliance with the Guidelines for Care and Use of Research Animals established by the Division of Comparative Medicine and the Animal Studies Committee of Washington University School of Medicine under protocol #20–0214. Female athymic nude mice were inoculated on the right flank with 10 × 10^6 CaSki or 5 × 10^6 BxPC-3 cells. Tumors were allowed to grow until they approached approximately 100 mm^3 in volume. Radiolabeled peptides were diluted in saline to a dose of 0.37 MBq (10 μCi) per 100 μl. […] For blocking experiments, non-PEGylated peptide (100 μg in 100 μL saline) was injected ten minutes before radiotracer. Blood, lung, liver, spleen, kidney, muscle, heart, bone, and tumor were harvested. The amount of radioactivity in each organ was determined by gamma counting, and the percent injected dose per gram of tissue (% ID/g) was calculated.

[3] = Biodistribution in mice bearing BxPC-3 xenografts; settings: female, athymic nude, mouse, iv, total radioactivity, BxPC-3 tumor-bearing mice, 1 h p.i.
Text: as §1

## CC(C)C[C@H](NC(=O)[C@H](CC(=O)O)NC(=O)CNC(=O)[C@H](CCCNC(=N)N)NC(=O)[C@H](CC(C)C)NC(=O)[C@H](CC(N)=O)NC(=O)[C@@H]1CCCN1C(=O)[C@@H](NC(=O)[C@H](C)NC(=O)[C@H](CC(N)=O)NC(=O)CCOCCOCCOCCOCCOCCOCCOCCOCCOCCOCCOCCOCCOCCOCCOCCOCCOCCOCCOCCOCCOCCOCCOCCOCCOCCOCCOCCOCCNC(=O)CN1CCN(CC(=O)O)CCN(CC(=O)O)CCN(CC(=O)O)CC1)C(C)C)C(=O)N[C@@H](CCC(N)=O)C(=O)N[C@H](C(=O)N[C@@H](CC(C)C)C(=O)N[C@@H](C)C(=O)N[C@@H](CCC(N)=O)C(=O)N[C@@H](CCCCN)C(=O)N[C@H](C(=O)N[C@@H](C)C(=O)N[C@@H](CCCNC(=N)N)C(=O)N[C@H](C(=O)NCCOCCOCCOCCOCCOCCOCCOCCOCCOCCOCCOCCOCCOCCOCCOCCOCCOCCOCCOCCOCCOCCOCCOCCOCCOCCOCCOCCOCCC(N)=O)[C@@H](C)O)C(C)C)C(C)C [[^64Cu]Cu-DOTA-(PEG28)2-A20FMDV2, metal not drawn]
[1]; PET at 1 h
  SUV at 1 h: 0.44 ± 0.02 SUV
[1]; PET at 4 h
  SUV at 4 h: 0.57 ± 0.15 SUV
[1]; PET at 24 h
  SUV at 24 h: 0.69 ± 0.09 SUV
[2]; blood, CaSki tumor-bearing mice, 0.37 MBq i.v., gamma counting, mean, n = 4, read-out: Uptake in Blood
  tissue uptake at 1 h: 0.22 %ID/g
[2]; blood, CaSki tumor-bearing mice, 0.37 MBq i.v., read-out: Radioactivity remaining in the blood
  tissue uptake at 24 h: 0.26 ± 0.07 %ID/g
[2]; blood, CaSki tumor-bearing mice, non-PEGylated A20FMDV2 100 μg injected 10 min before radiotracer, read-out: Uptake in Blood, 1 h Block
  tissue uptake at 1 h: 0.13 %ID/g
[2]; bone, CaSki tumor-bearing mice, 0.37 MBq i.v., gamma counting, mean, n = 4, read-out: Uptake in Bone
  tissue uptake at 1 h: 0.62 %ID/g
[2]; bone, CaSki tumor-bearing mice, non-PEGylated A20FMDV2 100 μg injected 10 min before radiotracer, read-out: Uptake in Bone, 1 h Block
  tissue uptake at 1 h: 0.27 %ID/g
[2]; heart, CaSki tumor-bearing mice, 0.37 MBq i.v., gamma counting, mean, n = 4, read-out: Uptake in Heart
  tissue uptake at 1 h: 0.71 %ID/g
[2]; heart, CaSki tumor-bearing mice, non-PEGylated A20FMDV2 100 μg injected 10 min before radiotracer, read-out: Uptake in Heart, 1 h Block
  tissue uptake at 1 h: 0.58 %ID/g
[2]; kidney, CaSki tumor-bearing mice, 0.37 MBq i.v., gamma counting, mean, n = 4, read-out: Uptake in Kidney
  tissue uptake at 1 h: 42.7 ± 4.03 %ID/g
[2]; kidney, CaSki tumor-bearing mice, 0.37 MBq i.v., 4 h p.i.
  tissue uptake at 4 h: 37 ± 10.6 %ID/g
[2]; kidney, CaSki tumor-bearing mice, 0.37 MBq i.v., read-out: Uptake in Kidney
  tissue uptake at 24 h: 21 ± 4.67 %ID/g
[2]; kidney, CaSki tumor-bearing mice, non-PEGylated A20FMDV2 100 μg injected 10 min before radiotracer, read-out: Uptake in Kidney, 1 h Block
  tissue uptake at 1 h: 35.5 %ID/g
[2]; liver, CaSki tumor-bearing mice, 0.37 MBq i.v., gamma counting, mean, n = 4, read-out: Uptake in Liver
  tissue uptake at 1 h: 1.04 %ID/g
[2]; liver, CaSki tumor-bearing mice, non-PEGylated A20FMDV2 100 μg injected 10 min before radiotracer, read-out: Uptake in Liver, 1 h Block
  tissue uptake at 1 h: 0.94 %ID/g
[2]; lung, CaSki tumor-bearing mice, 0.37 MBq i.v., gamma counting, mean, n = 4, read-out: Uptake in Lung
  tissue uptake at 1 h: 1.37 %ID/g
[2]; lung, CaSki tumor-bearing mice, non-PEGylated A20FMDV2 100 μg injected 10 min before radiotracer, read-out: Uptake in Lung, 1 h Block
  tissue uptake at 1 h: 1.19 %ID/g
[2]; muscle, CaSki tumor-bearing mice, 0.37 MBq i.v., gamma counting, mean, n = 4, read-out: Uptake in Muscle
  tissue uptake at 1 h: 0.73 %ID/g
[2]; muscle, CaSki tumor-bearing mice, non-PEGylated A20FMDV2 100 μg injected 10 min before radiotracer, read-out: Uptake in Muscle, 1 h Block
  tissue uptake at 1 h: 0.51 %ID/g
[2]; spleen, CaSki tumor-bearing mice, 0.37 MBq i.v., gamma counting, mean, n = 4, read-out: Uptake in Spleen
  tissue uptake at 1 h: 0.17 %ID/g
[2]; spleen, CaSki tumor-bearing mice, non-PEGylated A20FMDV2 100 μg injected 10 min before radiotracer, read-out: Uptake in Spleen, 1 h Block
  tissue uptake at 1 h: 0.13 %ID/g
[2]; tumor (CaSki xenograft), 0.37 MBq i.v., gamma counting, mean, n = 4, read-out: Tumor Uptake
  tissue uptake at 1 h: 0.95 ± 0.29 %ID/g
[2]; tumor (CaSki xenograft), non-PEGylated A20FMDV2 100 μg injected 10 min before radiotracer, read-out: Tumor uptake, 1 h Block
  tissue uptake at 1 h: 0.65 ± 0.17 %ID/g
[3]; blood, 0.37 MBq i.v., gamma counting, mean, n = 4, read-out: Uptake in Blood
  tissue uptake at 1 h: 0.28 %ID/g
[3]; blood, non-PEGylated A20FMDV2 100 μg injected 10 min before radiotracer, read-out: Uptake in Blood, 1 h Block
  tissue uptake at 1 h: 0.24 %ID/g
[3]; bone, 0.37 MBq i.v., gamma counting, mean, n = 4, read-out: Uptake in Bone
  tissue uptake at 1 h: 0.25 %ID/g
[3]; bone, non-PEGylated A20FMDV2 100 μg injected 10 min before radiotracer, read-out: Uptake in Bone, 1 h Block
  tissue uptake at 1 h: 0.28 %ID/g
[3]; heart, 0.37 MBq i.v., gamma counting, mean, n = 4, read-out: Uptake in Heart
  tissue uptake at 1 h: 1.01 %ID/g
[3]; heart, non-PEGylated A20FMDV2 100 μg injected 10 min before radiotracer, read-out: Uptake in Heart, 1 h Block
  tissue uptake at 1 h: 0.34 %ID/g
[3]; 0.37 MBq i.v., gamma counting, mean, n = 4, read-out: Tumor Uptake
  tissue uptake at 1 h: 2.12 ± 0.83 %ID/g
[3]; kidney, 0.37 MBq i.v., gamma counting, mean, n = 4, read-out: Uptake in Kidney
  tissue uptake at 1 h: 38 %ID/g
[3]; kidney, non-PEGylated A20FMDV2 100 μg injected 10 min before radiotracer, read-out: Uptake in Kidney, 1 h Block
  tissue uptake at 1 h: 27.6 %ID/g
[3]; liver, 0.37 MBq i.v., gamma counting, mean, n = 4, read-out: Uptake in Liver
  tissue uptake at 1 h: 2.79 %ID/g
[3]; liver, non-PEGylated A20FMDV2 100 μg injected 10 min before radiotracer, read-out: Uptake in Liver, 1 h Block
  tissue uptake at 1 h: 2.59 %ID/g
[3]; lung, 0.37 MBq i.v., gamma counting, mean, n = 4, read-out: Uptake in Lung
  tissue uptake at 1 h: 1.73 %ID/g
[3]; lung, non-PEGylated A20FMDV2 100 μg injected 10 min before radiotracer, read-out: Uptake in Lung, 1 h Block
  tissue uptake at 1 h: 1.14 %ID/g
[3]; muscle, 0.37 MBq i.v., gamma counting, mean, n = 4, read-out: Uptake in Muscle
  tissue uptake at 1 h: 0.62 %ID/g
[3]; muscle, non-PEGylated A20FMDV2 100 μg injected 10 min before radiotracer, read-out: Uptake in Muscle, 1 h Block
  tissue uptake at 1 h: 0.18 %ID/g
[3]; spleen, 0.37 MBq i.v., gamma counting, mean, n = 4, read-out: Uptake in Spleen
  tissue uptake at 1 h: 0.3 %ID/g
[3]; spleen, non-PEGylated A20FMDV2 100 μg injected 10 min before radiotracer, read-out: Uptake in Spleen, 1 h Block
  tissue uptake at 1 h: 0.34 %ID/g
[3]; tumor (BxPC-3 xenograft), non-PEGylated A20FMDV2 100 μg injected 10 min before radiotracer, read-out: Tumor uptake, 1 h Block
  tissue uptake at 1 h: 0.71 ± 0.16 %ID/g
